Data reported in patent US20250270301A1 (GEN2 NEUROSCIENCE, published 2025).
Changes are numbered by the printed parent chain.

What was measured:
[1] = target: aggregated (oligomeric) P301S 2N4R tau, pHrodo-labelled (human, UniProt P10636 1-758, pHrodo Red maleimide label); experiment: cell-based or functional assay
[2] = target: monomeric P301S 2N4R tau, pHrodo-labelled (human, UniProt P10636 1-758, pHrodo Red maleimide label); experiment: cell-based or functional assay
[3] = target: T1, full length recombinant human 2N4R tau (human, UniProt P10636 1-758); experiment: SPR MCK, IgG on Protein A, tau in flow
T1 construct: bought from rPeptide; pHrodo Red maleimide-labelled where it stands in uptake assays; also called tau1-441; full length tau
T1 sequence (P10636 other isoform, or with tags, fused parts or gaps limits assumed): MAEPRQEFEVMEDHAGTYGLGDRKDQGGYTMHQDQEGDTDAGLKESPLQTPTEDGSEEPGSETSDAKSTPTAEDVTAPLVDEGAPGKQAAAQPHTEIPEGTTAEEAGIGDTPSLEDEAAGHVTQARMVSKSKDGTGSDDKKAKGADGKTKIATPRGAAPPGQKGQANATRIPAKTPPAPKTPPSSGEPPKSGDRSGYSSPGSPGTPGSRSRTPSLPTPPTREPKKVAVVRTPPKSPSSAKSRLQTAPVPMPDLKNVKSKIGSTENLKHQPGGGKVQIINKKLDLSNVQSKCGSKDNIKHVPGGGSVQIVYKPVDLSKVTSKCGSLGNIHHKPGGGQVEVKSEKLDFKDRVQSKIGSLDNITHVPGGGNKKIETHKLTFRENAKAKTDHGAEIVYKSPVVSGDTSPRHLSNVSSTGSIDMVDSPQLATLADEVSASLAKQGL
Procedure: Slight variations in RMAX are considered likely to be due to differences in ligand capture and not reflective of significant variation in antibody binding characteristics.
22.2 Assessment of antibody binding to tau (Biacore MCK analysis): Binding of anti-tau hIgG1 to full length recombinant 2N4R tau (Rpeptide; SEQ ID NO: 2) was assessed using the Biacore T200 (GE Healthcare, Chicago, IL, USA) running Biacore T200 Evaluation Software V2.0.1. hIgG1 were immobilised on a Protein A capture sensor chip in running buffer (HBS-EP+ buffer containing 1 mg/mL BSA) at 25° C., captured to ˜50 RU at […]. For multi-cycle kinetics experiments, recombinant 2N4R tau was flowed at concentrations ranging from 0.39 nM to 12.5 nM in running buffer at 40 μL/min, with an association time of 60 s and a dissociation time of 200 s. Curves were compared to a reference cell that was mock immobilized (no antibody present).

Bovine serum albumin = target: T2, Bovine serum albumin (bovine, UniProt P02769 25-607); experiment: ELISA on 1% BSA, HEK supernatant, anti-human IgG-HRP, n=1
T2 construct: also called BSA
T2 sequence (P02769 25-607 limits assumed): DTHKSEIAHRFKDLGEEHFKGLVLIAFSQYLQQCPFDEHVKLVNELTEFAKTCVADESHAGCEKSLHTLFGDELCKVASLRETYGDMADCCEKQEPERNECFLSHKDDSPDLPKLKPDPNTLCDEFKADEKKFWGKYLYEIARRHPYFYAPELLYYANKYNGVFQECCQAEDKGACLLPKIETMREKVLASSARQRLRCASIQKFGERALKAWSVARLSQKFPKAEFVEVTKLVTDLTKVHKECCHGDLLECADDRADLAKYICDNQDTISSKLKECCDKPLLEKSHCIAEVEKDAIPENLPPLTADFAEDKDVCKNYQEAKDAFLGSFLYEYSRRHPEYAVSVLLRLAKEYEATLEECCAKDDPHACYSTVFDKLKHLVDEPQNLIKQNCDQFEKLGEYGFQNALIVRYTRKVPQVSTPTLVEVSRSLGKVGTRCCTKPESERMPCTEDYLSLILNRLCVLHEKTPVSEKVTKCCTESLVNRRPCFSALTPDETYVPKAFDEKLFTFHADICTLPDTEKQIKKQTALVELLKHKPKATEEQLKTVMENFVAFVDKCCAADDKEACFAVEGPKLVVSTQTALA
Procedure: FIG. 7. A panel of humanised anti-tau IgG bind to full length recombinant 2N4R tau in an ELISA format. Supernatants from HEK cells transiently transfected with each IgG clone were tested at 1:100 for binding to full length recombinant 2N4R tau (solid bars). […] Binding of anti-tau hIgG1 was detected using an HRP-conjugated anti-human secondary antibody and data are shown from a representative experiment (n=1 replicate).
Antigen was removed from wells and the plates were then blocked for 1 hour at RT with 5% dried milk in 1×TBS. Blocking solution was removed, HEK293 cell supernatant (1:100 in 1% BSA/1×TBS) was added to relevant wells, and plates were incubated for 1 hour at RT with gentle shaking. Plates were then washed four times with TBS/0.1% Tween (TBST). Goat anti-human IgG-HRP antibody (Thermo Fisher Scientific, Waltham, MA, USA), diluted 1:2000 in 5% milk/TBS, was added to each well and plates were incubated for 1 hour at RT with gentle shaking before being washed four times with TBST. 3,3′,5,5′-tetramethylbenzidine (TMB) ELISA solution was added to each well and plates were incubated for 15 mins at RT. An equal volume of 1 M sulfuric acid was added to each well and OD was measured at 450 nm.

[4] = target: T1, full length recombinant human 2N4R tau; experiment: SPR SCK, IgG on Protein A, tau in flow
Procedure: 21.5 Assessment of antibody binding to tau (Biacore SCK analysis): Binding of anti-tau hIgG1 to full length recombinant 2N4R tau (Rpeptide; SEQ ID NO: 2) was assessed using the Biacore T200 (GE Healthcare, Chicago, IL, USA) running Biacore T200 Evaluation Software V2.0.1. hIgG1 were immobilised on a Protein A capture sensor chip in running buffer (HBS-EP+ buffer containing 1 mg/mL BSA) at 25° C., captured to ˜50 RU at 10 μL/min. For single-cycle kinetics experiments, recombinant 2N4R tau was flowed at concentrations ranging from 1.25 nM to 10 nM (2-fold dilutions) with an association time of 60 s and a dissociation time of 200 s. Curves were compared to a reference cell that was mock immobilized (no antibody present).

Chain of monomeric P301S 2N4R tau, pHrodo-labelled (P10636 other isoform, or with tags, fused parts or gaps P301S P301S): as the sequence (P10636 other isoform, or with tags, fused parts or gaps limits assumed) above, with P301S counted along it
Chain of aggregated (oligomeric) P301S 2N4R tau, pHrodo-labelled (P10636 other isoform, or with tags, fused parts or gaps P301S P301S): as the sequence (P10636 other isoform, or with tags, fused parts or gaps limits assumed) above, with P301S counted along it

B1: #44 VH3VK3 humanised hIgG1 (antibody, V domains shown)
VH: QVQLQESGPGLVKPSETLSLTCTVSGIDLSSYAMAWVRQAPGKGLEWIGCIDRRGGTFYASWVKGRFTISKTSTTVDLQMTSLTAEDTATYFCARDSGAFDPWGQGTLVTVSS
VL: DIQMTQSPSSLSASVGDRVTITCQASQSVYDNYLAWYQQKPGQPPKLLIHAASNLASGVPSRFKGSGSGTEFTLTISSLQPDDFATYYCLGEFSCTTTDCNVFGGGTKVEIK
notes: also called VH3Vκ3; Clone VH3VK3 (A)
[1]
  increase of aggregated tau uptake into human iPSC-derived microglia: 77.7%
  inhibition of aggregated tau uptake into human iPSC-derived astrocytes: 46.4%
  inhibition of aggregated tau uptake into human iPSC-derived neurons: 30.6%
[2]
  increase of monomeric tau uptake into human iPSC-derived microglia: 16.1%
  inhibition of monomeric tau uptake into human iPSC-derived astrocytes: 85.2%
  inhibition of monomeric tau uptake into human iPSC-derived neurons: 48.4%
[3]
  Kd: 5.7 nM
  Relative KD (to VH0VK0): 1.75
  koff: 0.0927 s⁻¹
  kon: 1.63e+07 M⁻¹ s⁻¹
Bovine serum albumin
  binding result: no binding (tested: supernatant 1:100)
[4]
  Kd: 7.71 nM
  Relative KD (to VH0VK0): 2.01
  koff: 0.0341 s⁻¹
  kon: 4.43e+06 M⁻¹ s⁻¹

B2: #44 VH3VK4 humanised hIgG1 (antibody, V domains shown)
VH: B1 VH
VL: B1 VL with K64S
notes: also called VH3Vκ4; Clone VH3VK4 (B)
[1]
  increase of aggregated tau uptake into human iPSC-derived microglia: 83.9%
  inhibition of aggregated tau uptake into human iPSC-derived astrocytes: 45%
  inhibition of aggregated tau uptake into human iPSC-derived neurons: 33.3%
[2]
  increase of monomeric tau uptake into human iPSC-derived microglia: 80.3%
  inhibition of monomeric tau uptake into human iPSC-derived astrocytes: 87.6%
  inhibition of monomeric tau uptake into human iPSC-derived neurons: 43.1%
[3]
  Kd: 6.57 nM
  Relative KD (to VH0VK0): 2.02
  koff: 0.0618 s⁻¹
  kon: 9.4e+06 M⁻¹ s⁻¹
Bovine serum albumin
  binding result: no binding (tested: supernatant 1:100)
[4]
  Kd: 7.02 nM
  Relative KD (to VH0VK0): 1.83
  koff: 0.043 s⁻¹
  kon: 6.12e+06 M⁻¹ s⁻¹

B3: #44 VH2VK4 humanised hIgG1 (antibody, V domains shown)
VH: QSVQESGPGLVKPSETLSLTCTVSGIDLSSYAMAWVRQAPGKGLEWIGCIDRRGGTFYASWVKGRFTISKTSTTVDLQMTSLTAEDTATYFCARDSGAFDPWGQGTLVTVSS
VL: B1 VL with K64S
notes: also called VH2Vκ4
Bovine serum albumin
  binding result: no binding (tested: supernatant 1:100)
[4]
  Kd: 5.33 nM
  Relative KD (to VH0VK0): 1.39
  koff: 0.0195 s⁻¹
  kon: 3.66e+06 M⁻¹ s⁻¹

B4: #44 VH4VK2 humanised hIgG1 (antibody, V domains shown)
VH: QVQLQESGPGLVKPSETLSLTCTVSGIDLSSYAMAWVRQAPGKGLEWIGCIDRRGGTFYASWVKGRFTISKDTSKTTVDLQMTSLTAEDTATYFCARDSGAFDPWGQGTLVTVSS
VL: B1 VL with D1Q, Q3V
notes: also called VH4Vκ2; Clone VH4VK2 (C)
[1]
  increase of aggregated tau uptake into human iPSC-derived microglia: 97.6%
  inhibition of aggregated tau uptake into human iPSC-derived astrocytes: 48%
  inhibition of aggregated tau uptake into human iPSC-derived neurons: 41.9%
[2]
  increase of monomeric tau uptake into human iPSC-derived microglia: 71.4%
  inhibition of monomeric tau uptake into human iPSC-derived astrocytes: 84.6%
  inhibition of monomeric tau uptake into human iPSC-derived neurons: 50%
[3]
  Kd: 4.39 nM
  Relative KD (to VH0VK0): 1.35
  koff: 0.0401 s⁻¹
  kon: 9.14e+06 M⁻¹ s⁻¹
Bovine serum albumin
  binding result: no binding (tested: supernatant 1:100)
[4]
  Kd: 6.86 nM
  Relative KD (to VH0VK0): 1.79
  koff: 0.0247 s⁻¹
  kon: 3.6e+06 M⁻¹ s⁻¹

B5: #44 VH2VK3 humanised hIgG1 (antibody, V domains shown)
VH: B3 VH
VL: B1 VL
notes: also called VH2Vκ3
Bovine serum albumin
  binding result: no binding (tested: supernatant 1:100)
[4]
  Kd: 4.52 nM
  Relative KD (to VH0VK0): 1.18
  koff: 0.0187 s⁻¹
  kon: 4.14e+06 M⁻¹ s⁻¹
